From US20220372111A1 come the findings set out here.

The target in assay [1] is LDL receptor-related protein 1 (LRP1), purified from human placenta (human) (UniProt Q07954). Put plainly: SPR equilibrium KD relative to I91L PAI-1.
The target is the same in assay [2]. Briefly: SPR equilibrium analysis, LRP1 immobilised.

What is called Kd is the free concentration of one partner at which half of the binding sites on the other are occupied at equilibrium, for simple one-to-one binding. Lower therefore signals a tighter complex.

Chain of UniProt Q07954 (Q07954 20-4544): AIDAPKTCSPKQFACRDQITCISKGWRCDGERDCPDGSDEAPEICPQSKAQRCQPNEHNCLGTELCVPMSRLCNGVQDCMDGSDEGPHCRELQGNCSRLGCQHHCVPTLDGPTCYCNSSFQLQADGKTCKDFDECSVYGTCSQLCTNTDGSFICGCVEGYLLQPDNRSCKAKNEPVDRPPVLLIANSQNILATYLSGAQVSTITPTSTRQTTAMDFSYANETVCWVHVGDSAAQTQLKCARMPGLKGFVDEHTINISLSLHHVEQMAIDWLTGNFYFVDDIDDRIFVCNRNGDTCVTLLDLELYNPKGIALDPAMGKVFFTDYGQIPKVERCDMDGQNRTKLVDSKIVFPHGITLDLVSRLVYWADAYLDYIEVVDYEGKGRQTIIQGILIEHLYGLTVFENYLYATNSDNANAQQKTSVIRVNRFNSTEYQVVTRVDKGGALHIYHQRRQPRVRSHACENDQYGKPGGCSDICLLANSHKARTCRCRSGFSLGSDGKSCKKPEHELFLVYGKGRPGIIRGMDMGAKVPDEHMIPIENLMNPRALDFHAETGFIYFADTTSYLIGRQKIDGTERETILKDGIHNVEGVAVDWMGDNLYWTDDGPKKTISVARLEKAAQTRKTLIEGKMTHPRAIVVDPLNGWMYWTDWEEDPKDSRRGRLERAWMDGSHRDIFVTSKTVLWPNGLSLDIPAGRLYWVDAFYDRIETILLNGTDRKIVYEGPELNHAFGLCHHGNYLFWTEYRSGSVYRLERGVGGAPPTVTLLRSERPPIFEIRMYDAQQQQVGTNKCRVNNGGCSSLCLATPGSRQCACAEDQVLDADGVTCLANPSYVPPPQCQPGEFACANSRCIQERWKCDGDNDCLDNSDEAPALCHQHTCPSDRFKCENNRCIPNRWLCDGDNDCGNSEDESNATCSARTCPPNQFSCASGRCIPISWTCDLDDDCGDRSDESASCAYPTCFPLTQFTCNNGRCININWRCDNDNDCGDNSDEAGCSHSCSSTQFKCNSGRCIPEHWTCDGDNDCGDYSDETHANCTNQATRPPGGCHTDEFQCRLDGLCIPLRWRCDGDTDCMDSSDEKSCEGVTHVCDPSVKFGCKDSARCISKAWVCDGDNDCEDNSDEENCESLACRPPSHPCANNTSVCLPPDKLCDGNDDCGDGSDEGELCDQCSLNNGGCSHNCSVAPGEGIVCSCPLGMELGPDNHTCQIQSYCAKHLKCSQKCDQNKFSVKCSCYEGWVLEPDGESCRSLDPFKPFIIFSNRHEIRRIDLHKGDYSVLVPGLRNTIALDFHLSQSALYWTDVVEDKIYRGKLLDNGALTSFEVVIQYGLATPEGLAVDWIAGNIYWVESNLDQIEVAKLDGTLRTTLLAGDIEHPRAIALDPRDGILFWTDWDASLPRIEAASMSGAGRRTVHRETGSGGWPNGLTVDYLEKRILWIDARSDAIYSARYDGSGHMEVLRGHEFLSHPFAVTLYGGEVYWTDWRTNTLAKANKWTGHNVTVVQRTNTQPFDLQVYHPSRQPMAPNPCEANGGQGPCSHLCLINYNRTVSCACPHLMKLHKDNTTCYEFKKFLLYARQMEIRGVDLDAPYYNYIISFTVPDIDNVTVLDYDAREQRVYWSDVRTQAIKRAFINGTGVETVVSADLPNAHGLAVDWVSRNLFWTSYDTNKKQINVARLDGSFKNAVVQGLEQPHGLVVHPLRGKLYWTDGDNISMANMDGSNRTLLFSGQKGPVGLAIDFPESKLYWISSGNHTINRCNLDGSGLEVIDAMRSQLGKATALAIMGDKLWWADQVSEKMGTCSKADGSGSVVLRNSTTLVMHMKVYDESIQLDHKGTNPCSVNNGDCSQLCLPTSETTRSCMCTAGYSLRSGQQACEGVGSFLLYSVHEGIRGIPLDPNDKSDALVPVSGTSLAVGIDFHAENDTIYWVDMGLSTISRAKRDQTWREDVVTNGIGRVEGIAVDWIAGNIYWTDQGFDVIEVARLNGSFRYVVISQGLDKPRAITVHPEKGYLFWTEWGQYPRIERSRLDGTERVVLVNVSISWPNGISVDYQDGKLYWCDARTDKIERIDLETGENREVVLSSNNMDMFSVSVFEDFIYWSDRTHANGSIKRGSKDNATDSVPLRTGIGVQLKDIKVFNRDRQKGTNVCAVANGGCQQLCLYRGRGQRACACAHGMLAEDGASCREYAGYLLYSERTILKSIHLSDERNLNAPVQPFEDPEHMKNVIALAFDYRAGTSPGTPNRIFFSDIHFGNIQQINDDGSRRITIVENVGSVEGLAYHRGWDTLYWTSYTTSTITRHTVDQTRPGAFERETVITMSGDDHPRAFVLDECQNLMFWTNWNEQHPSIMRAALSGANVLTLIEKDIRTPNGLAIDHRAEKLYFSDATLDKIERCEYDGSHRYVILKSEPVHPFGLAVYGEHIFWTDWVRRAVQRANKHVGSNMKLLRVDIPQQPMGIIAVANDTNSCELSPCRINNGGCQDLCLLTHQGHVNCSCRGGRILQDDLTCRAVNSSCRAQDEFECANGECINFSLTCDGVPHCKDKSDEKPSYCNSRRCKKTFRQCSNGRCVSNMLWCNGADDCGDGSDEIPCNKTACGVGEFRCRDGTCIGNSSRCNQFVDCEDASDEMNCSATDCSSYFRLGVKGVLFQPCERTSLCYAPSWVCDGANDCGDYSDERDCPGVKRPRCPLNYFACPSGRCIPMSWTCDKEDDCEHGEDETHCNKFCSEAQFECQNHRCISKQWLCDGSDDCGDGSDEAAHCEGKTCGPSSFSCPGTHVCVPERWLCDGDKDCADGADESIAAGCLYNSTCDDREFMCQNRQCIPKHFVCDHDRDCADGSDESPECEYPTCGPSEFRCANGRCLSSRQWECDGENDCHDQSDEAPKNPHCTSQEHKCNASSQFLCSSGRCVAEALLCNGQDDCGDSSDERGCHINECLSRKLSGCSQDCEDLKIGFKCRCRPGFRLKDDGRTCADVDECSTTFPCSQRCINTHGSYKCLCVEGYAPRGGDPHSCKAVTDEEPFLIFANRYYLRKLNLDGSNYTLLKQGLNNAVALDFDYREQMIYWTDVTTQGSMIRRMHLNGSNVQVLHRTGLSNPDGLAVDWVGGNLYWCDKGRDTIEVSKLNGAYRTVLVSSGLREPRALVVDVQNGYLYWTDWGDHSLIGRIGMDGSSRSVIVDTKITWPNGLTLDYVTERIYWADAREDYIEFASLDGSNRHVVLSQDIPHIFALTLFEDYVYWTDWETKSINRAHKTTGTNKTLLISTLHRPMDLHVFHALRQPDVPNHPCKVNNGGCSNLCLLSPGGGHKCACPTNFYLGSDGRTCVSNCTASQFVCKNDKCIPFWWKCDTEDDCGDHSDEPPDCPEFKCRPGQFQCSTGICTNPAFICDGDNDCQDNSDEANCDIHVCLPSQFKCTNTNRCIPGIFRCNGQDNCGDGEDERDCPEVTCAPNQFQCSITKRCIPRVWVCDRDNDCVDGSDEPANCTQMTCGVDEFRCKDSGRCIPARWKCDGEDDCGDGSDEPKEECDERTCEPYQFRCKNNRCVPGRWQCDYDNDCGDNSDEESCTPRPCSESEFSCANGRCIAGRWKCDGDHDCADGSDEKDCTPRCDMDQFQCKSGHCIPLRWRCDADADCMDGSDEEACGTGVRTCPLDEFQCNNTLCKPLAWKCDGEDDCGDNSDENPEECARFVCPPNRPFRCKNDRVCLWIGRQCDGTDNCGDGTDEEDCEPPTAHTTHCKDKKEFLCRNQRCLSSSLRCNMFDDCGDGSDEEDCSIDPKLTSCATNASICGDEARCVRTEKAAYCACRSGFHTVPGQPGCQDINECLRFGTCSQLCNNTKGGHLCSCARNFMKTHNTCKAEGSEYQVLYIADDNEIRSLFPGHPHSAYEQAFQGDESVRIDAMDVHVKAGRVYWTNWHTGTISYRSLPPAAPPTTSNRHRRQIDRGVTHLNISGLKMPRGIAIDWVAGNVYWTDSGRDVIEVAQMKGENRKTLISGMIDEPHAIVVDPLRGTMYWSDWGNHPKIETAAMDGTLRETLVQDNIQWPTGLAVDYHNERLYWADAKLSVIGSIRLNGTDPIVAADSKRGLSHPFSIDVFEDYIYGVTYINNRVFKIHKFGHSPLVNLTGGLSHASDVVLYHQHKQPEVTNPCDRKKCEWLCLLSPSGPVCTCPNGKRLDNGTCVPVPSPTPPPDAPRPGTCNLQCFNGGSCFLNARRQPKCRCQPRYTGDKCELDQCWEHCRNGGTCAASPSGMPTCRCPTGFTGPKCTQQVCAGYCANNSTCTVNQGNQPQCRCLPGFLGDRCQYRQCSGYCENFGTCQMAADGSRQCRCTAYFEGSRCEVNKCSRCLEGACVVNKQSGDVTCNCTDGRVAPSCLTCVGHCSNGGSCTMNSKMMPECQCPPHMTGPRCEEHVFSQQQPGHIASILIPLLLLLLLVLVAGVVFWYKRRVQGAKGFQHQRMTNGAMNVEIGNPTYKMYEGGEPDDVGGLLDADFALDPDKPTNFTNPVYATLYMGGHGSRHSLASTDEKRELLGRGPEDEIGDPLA

For the substance “14-1B R76E PAI-1 (from UniProt P05121 24-402)”, the Fold change in assay [1] turned out to be 32 fold. This substance came in with a dissociation constant Kd in assay [2] of 1770 nM.
